In assay [1] the target is ACKR3 of primary mouse astrocytes (mouse (endogenous in primary astrocytes)) (UniProt P56485).
Assay [2] has the same target. The source holds these as a separate data set.

Chain of UniProt P56485 (P56485 whole entry): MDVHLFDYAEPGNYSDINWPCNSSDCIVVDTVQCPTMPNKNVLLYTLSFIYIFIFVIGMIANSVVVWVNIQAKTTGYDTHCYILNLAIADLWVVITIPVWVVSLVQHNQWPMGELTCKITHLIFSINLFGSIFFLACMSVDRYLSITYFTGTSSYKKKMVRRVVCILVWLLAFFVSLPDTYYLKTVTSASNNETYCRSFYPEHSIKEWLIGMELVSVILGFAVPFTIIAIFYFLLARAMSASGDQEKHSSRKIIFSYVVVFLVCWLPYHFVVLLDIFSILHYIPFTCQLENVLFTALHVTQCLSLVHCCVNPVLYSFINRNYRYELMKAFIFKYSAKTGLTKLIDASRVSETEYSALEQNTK

In assay [1], “Human/Feline/Rhesus Macaque CXCL12 (from UniProt P48061 22-93) (ligand)” came in with a junctional current (Ij) magnitude in astrocyte cell pairs (double patch-clamp), after bath-application of CXCL12 of 56.5%. In assay [2], the inhibition of forskolin-induced cAMP production in astrocytes, CXCL12 (10 nM) came out at 40.8 % inhibition and the inhibition of forskolin-induced cAMP production in astrocytes, CXCL12 after pre-treatment with the CXCR4 antagonist AMD3100 (1 μM, 30 min) came to 44.9%.

B1: Recombinant mouse CXCL11 (ligand)
chain: FLMFKQGRCLCIGPGMKAVKMAEIEKASVIYPSNGCDKVEVIVTMKAHKRQRCLDPRSKQARLIMQAIEKKNFLRRQNM
In the case of B1, in assay [1], the junctional current (Ij) magnitude in astrocyte cell pairs (double patch-clamp), after bath-application of CXCL11 was 52%.

(Values after PMC7519114.)
